Experimental data: patent US20230028110A1 (ADAPTATE BIOTHERAPEUTICS, published 2023)
Read-outs that look alike come from different tables or passages of the source.

B1: 1251_P02_G10 (antibody, IgG1, V domains shown)
VH: EVQLVESGGGLVQPGGSLRLSCAASGFTFSDYYMSWIRQAPGKGLEWVSYISSSGSTIYYADSVKGRFTISRDNAKNSLYLQMNSLRAEDTAVYYCARHSWNDAFDIWGRGTLVTVSS
VL: DIQMTQSPSSLSASVGDRVTITCRASQSISSHLNWYQQKPGKAPKLLIYAASSLQSGVPSRFSASGSGTDFTLTISSLQPEDFATYYCQQSYSTLLTFGGGTKVEIK
notes: IgG1
B2: ADT1-7-3 (antibody, IgG1, V domains shown)
VH: EVQLVESGGGLVKPGGSLRLSCAASGFTFSDYYMSWIRQAPGKGLEWVSYISSSGSTIYYADSVKGRFTISRDNAKNSLYLQMNSLRAEDTAVYYCARVSYAEAFDIWGQGTLVTVSS
VL: DIQMTQSPSSLSASVGDRVTIACRAGQSIGTYLNWYQQKPGKAPKLLIYVASSLQSGVPSRFSGSGSGTEFTLTISSLQPEDFATYYCQQSYSGLDTFGRGTKVEIK
notes: IgG1
B3: 1245_P01_B07 (antibody, IgG1, V domains shown)
VH: EVQLLESGGGLVKPGGSLRLSCAASGFTFSDYYMSWIRQAPGKGLEWVSYISSSGSTIYYADSVKGRFTISRDNAKNSLYLQMNSLRAEDTAVYYCARENYLNAFDIWGRGTLVTVSS
VL: DIQMTQSPSSLSASVGDRVTITCRTSQSLSNYLNWYQQKPGKAPKLLIYAASSLQSGVPSRFSGSGSGTDFTLTISSLQPEDFATYYCQQSYSTPLTFGGGTKLEIK
notes: IgG1
B4: ADT1-7-20 (antibody, IgG1, V domains shown)
VH: EVQLVESGGGLVKPGGSLRLSCAASGFTFSDYYMSWIRQAPGKGLEWVSYISSSGSTIYYADSVKGRFTISRDNAKNSLYLQMNSLRAEDTAVYYCARVDYQEAFDIWGQGTLVTVSS
VL: DIQMTQSPSSLSASVGDRVTIACRAGQSIGTYLNWYQQKPGKAPKLLIYVASSLQSGVPSRFSGSGSGTEFTLTISSLQPEDFATYYCQQSYSGLDTFGRGTKVEIK
notes: IgG1
B5: 1245_P01_E07 (antibody, IgG1, V domains shown)
VH: QVQLVESGGGLVKPGGSLRLSCAASGFTFSDYYMSWIRQAPGKGLEWVSYISSSGSTIYYADSVKGRFTISRDNAKNSLYLQMNSLRAEDTAVYYCARVDYADAFDIWGQGTLVTVSS
VL: DIQMTQSPSSLSASVGDRVTIACRAGQSIGTYLNWYQQKPGKAPKLLIYVASSLQSGVPSRFSGSGSGTEFTLTISSLQPEDFATYYCQQSYSTLLTFGRGTKVEIK
notes: also called ADT1-7; parental ADT1-7
B6: 1245_P01_G06 (antibody, V domains shown)
VH: QVQLVESGGGLVKPGGSLRLSCAASGFTFSDYYMSWIRQAPGKGLEWVSYISSSGSTIYYADSVKGRFTISRDNAKNSLYLQMNSLRAEDTAVYYCARHSWNDAFDVWGQGTLVTVSS
VL: not shown
notes: IgG1
B7: ADT1-7-61 (antibody, IgG1, V domains shown)
VH: EVQLVESGGGLVKPGGSLRLSCAASGFTFSDYYMSWIRQAPGKGLEWVSYISSSGSTIYYADSVKGRFTISRDNAKNSLYLQMNSLRAEDTAVYYCARDDYDDAFDIWGQGTLVTVSS
VL: DIQMTQSPSSLSASVGDRVTIACRAGQSIGTYLNWYQQKPGKAPKLLIYVASSLQSGVPSRFSGSGSGTEFTLTISSLQPEDFATYYCQQSASELLTFGRGTKVEIK
notes: IgG1
B8: Anti-Vδ1xanti-4-1BB (ADT1-4-2xutomilumab) bispecific antibody (bispecific antibody, human IgG1, kappa)
light: DIQMTQSPPALSASVGDRVTITCRASQDINDWLAWYQHKPGKAPKLLIYDASSLESGVPLRFSGSGSGTEFTLTISSLQPDDFATYYCQQKYSAPQVTFGQGTRLEIKRTVAAPSVFIFPPSDEQLKSGTASVVCLLNNFYPREAKVQWKVDNALQSGNSQESVTEQDSKDSTYSLSSTLTLSKADYEKHKVYACEVTHQGLSSPVTKSFNRGEC
heavy: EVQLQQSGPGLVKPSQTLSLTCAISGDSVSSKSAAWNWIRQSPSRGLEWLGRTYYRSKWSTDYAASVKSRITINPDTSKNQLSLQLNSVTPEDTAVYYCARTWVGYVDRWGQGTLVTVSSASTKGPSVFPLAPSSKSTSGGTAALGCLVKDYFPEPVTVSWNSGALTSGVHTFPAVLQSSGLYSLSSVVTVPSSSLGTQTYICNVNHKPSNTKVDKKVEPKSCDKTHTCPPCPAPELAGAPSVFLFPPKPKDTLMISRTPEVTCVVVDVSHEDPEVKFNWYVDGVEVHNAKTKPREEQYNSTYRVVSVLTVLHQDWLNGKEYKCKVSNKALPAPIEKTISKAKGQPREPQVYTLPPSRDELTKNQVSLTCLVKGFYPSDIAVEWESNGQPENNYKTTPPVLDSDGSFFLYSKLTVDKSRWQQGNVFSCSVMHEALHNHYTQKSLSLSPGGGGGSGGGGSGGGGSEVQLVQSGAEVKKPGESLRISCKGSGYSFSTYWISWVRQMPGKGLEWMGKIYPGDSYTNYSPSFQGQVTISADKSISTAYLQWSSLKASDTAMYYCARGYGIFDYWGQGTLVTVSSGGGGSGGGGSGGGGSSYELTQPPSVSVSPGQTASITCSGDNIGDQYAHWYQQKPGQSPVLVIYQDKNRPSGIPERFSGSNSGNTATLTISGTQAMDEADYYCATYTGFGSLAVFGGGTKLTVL
notes: also called ADT1-4-2x 4-1BB; Vδ1-4-1BB bispecific antibody
B9: ADT1-4-86 (antibody, IgG1, V domains shown)
VH: EVQLQQSGPGLVKPSQTLSLTCAISGDSVSSKSVAWNWIRQSPSRGLEWLGRTYYRSKWSTDYAASVKSRITINPDTSKNQLSLQLNSVTPEDTAVYYCARTWLGNVDVWGQGTLVTVSS
VL: DIQMTQSPPALSASVGDRVTITCRASQDINDWLAWYQHKPGKAPKLLIYDASSLESGVPLRFSGSGSGTEFTLTISSLQPDDFATYYCQQKYSEPQVTFGQGTRLEIK
B10: ADT1-4 (S74L) (antibody, V domains shown)
VH: QVQLQQSGPGLVKPSQTLSLTCAISGDSVSSKSAAWNWIRQSPSRGLEWLGRTYYRSKWSTDYAASVKSRITINPDTSKNQLSLQLNSVTPEDTAVYYCARTWSGYVDVWGQGTLVTVSS
VL: DIQMTQSPPALSASVGDRVTITCRASQDINDWLAWYQHKPGKAPKLLIYDASSLESGVPLRFSGSGSGTEFTLTISSLQPDDFATYYCQQSYSTPQVTFGQGTRLEIKR
notes: Captured on Protein A; also called ADT1-4 (574L)
B11: 1139_P01_E04 (antibody, IgG1, V domains shown)
VH: QVQLQQSGPGLVKPSQTLSLTCAISGDSVSSNSAAWNWIRQSPSRGLEWLGRTYYRSKWYNDYAVSVRSRITINPDTSKNQFSLQLNSVTPEDTAVYYCARSWNDAFDIWGQGTTVTVSS
VL: DIVMTQSPSTLSASIGDRVTITCRAGQSISTWLAWYQQKPGKAPKLLIYDASSLESGVPLRFSGSGSGTDFTLTISSLQPEDFATYYCQQSYSTPLTFGGGTKVEIK
notes: IgG1
B12: 1245_P02_F07 (antibody, IgG1, V domains shown)
VH: QVQLQQSGPGLVKPSQTLSLTCVISGDSVSSNSAAWNWIRQSPSRGLEWLGRTYYRSKWYNDYAVSVKSRITINPDTSKNQFSLQLNSVTPEDTAVYYCARDYYYSMDVWGQGTMVTVSS
VL: DIQMTQSPSTLSASVGDRVTITCRASQSISSWLAWYQQKPGKAPKLLIYDASSLESGVPLRFSGSGSGTEFTLTISSLQPDDFATYYCQQSHSHPPTFGPGTKVDIK
notes: IgG1
B13: 1245_P01_G09 (antibody, IgG1, V domains shown)
VH: QVQLQQSGPGLVKPSQTLSLTCAISGDSVSSNSAAWNWIRQSPSRGLEWLGRTYYGSKWYNEYALSVKSRIIINPDTSKNQFSLQLNSVTPEDTAVYYCARDYYYSMDVWGQGTLVTVSS
VL: DIVMTQSPSTLSASIGDRVTITCRAGQSISTWLAWYQQKPGKAPKLLIYDASSLESGVPLRFSGSGSGTEFTLAISSLQPDDFATYYCQQSYSTPVTFGQGTKVEIK
notes: IgG1

What was measured:
[1] = target: T1, L1 (DV1-GV4), soluble human Vδ1/Vγ4 γδ TCR heterodimer in leucine zipper format (human); assay: DELFIA, 100 nM biotinylated L1
T1 construct: Biotinylated in the DELFIA ranking; also called Antigen L1 (TRDV1/TRGV4); human DV1-GV4; not shown: gamma chain: Vγ4 (TRGV4) domain on a TCR constant region, leucine zipper, histidine tag

[2] = target: Vδ1 chain of the γδ TCR on human Vδ1 γδ T cells (human); assay: cell-based or functional assay
[3] = target: T1, L1 (DV1-GV4), soluble human Vδ1/Vγ4 γδ …; assay: SPR (Reichert 4SPR), antibody on Protein A chip, human Vδ1 antigen as analyte; average of two replicates on two instruments
Text: The binding affinity of the antibodies to target (i.e. the Vδ1 chain of a γδ TCR) is established by SPR analysis using a Reichert 4SPR instrument (Reichert Technologies).
The binding interaction of Vδ1 and the affinity-matured mAbs were modelled according to Langmuir 1:1 binding.

[4] = target: Vδ1 chain of the γδ TCR on human Vδ1 γδ T cells (human); assay: cell-based or functional assay; remark: listed apart in the source
[5] = target: T2, Vδ1 chain of the γδ TCR on human Vδ1 γδ T cells (human); assay: flow cytometry, Vδ1 γδ T cells of donor TS164, mAb titrated up to about 500 nM at 4 C, anti-human IgG detection
T2 construct: whole, on cells; also called cell surface Vδ1 TCR; Vδ1-positive γδ T cells
Experimental: (§1) All incubation steps were performed at 4° C. and mAb binding was determined using flow cytometry to measure the median level of fluorescence. Logarithmic four parameter dose-response curves were fitted using GraphPad Prism 9. […] For Vδ1-positive γδ T cell, data is represented as the mean two donors.
(§2) A range of target cells were assayed to determine the specificity and affinity of Vδ1 mAb binding. This included expanded skin-derived Vδ1 γδ T-cells, HEK293T cells, Raji cells, and multiple leukocyte subsets within human primary blood mononuclear cells. Adherent or semi-adherent cells (skin-derived Vδ1 γδ T-cells, HEK293T) were detached from tissue culture flask and resuspended in PBS. Similarly, non-adherent cell types (Raji, PBMC), were harvested and resuspended in PBS. Cells were seeded at a final density of 100,000 cells per well in v-bottom 96-well plates. Cells underwent centrifugation and the cell pellets were resuspended in FcR blocking reagent according to the manufacturer's instructions, and incubated for 20 minutes at 4C prior to a further wash. […] To determine the quantity of mAb bound to the cell surface, the cells were then stained with a murine anti-human IgG secondary antibody, conjugated to APC (dilution: 1:100). For Vδ1 γδ T-cells, HEK293T and Raji, the cells were also stained solely with a viability dye.

[6] = target: T2, Vδ1 chain of the γδ TCR on human Vδ1 γδ …; assay: flow cytometry, Vδ1 γδ T cells of donor ATS006, mAb titrated up to about 500 nM at 4 C, anti-human IgG detection
Experimental: as §1, §2

[7] = target: T2, Vδ1 chain of the γδ TCR on human Vδ1 γδ …; assay: flow cytometry binding to Vδ1 γδ T cells, donor ATS006; column head printed 'IC50', unit nM from the chart axis and FIG. 34D
Experimental: as §1, §2

[8] = target: T1, L1 (DV1-GV4), soluble human Vδ1/Vγ4 γδ …; assay: DELFIA ELISA, human antigen; heat map cell of the clone
[9] = target: T2, Vδ1 chain of the γδ TCR on human Vδ1 γδ …; assay: flow cytometry binding to Vδ1 γδ T cells, donor TS164; column head printed 'IC50', unit nM from the chart axis and FIG. 34D
Experimental: as §1, §2

[10] = target: T2, Vδ1 chain of the γδ TCR on human Vδ1 γδ …; assay: cell-based or functional assay; remark: listed apart in the source
[11] = target: T2, Vδ1 chain of the γδ TCR on human Vδ1 γδ …; assay: flow cytometry on Vδ1 γδ T-cells, anti-human IgG secondary antibody, % cells bound IgG
[12] = target: T2, Vδ1 chain of the γδ TCR on human Vδ1 γδ …; assay: cell-based or functional assay; remark: listed apart in the source
[13] = target: T1, L1 (DV1-GV4), soluble human Vδ1/Vγ4 γδ …; assay: SPR (Reichert 4SPR), antibody on Protein A chip, antigen flown over
Experimental: Recombinant human Vδ1 heterodimer or human 4-1BB was flown over the cell at a top concentration of 100 nM.

[14] = target: 4-1BB on 4-1BB+ NFAT Jurkat cells (human, UniProt Q07011); assay: cell-based or functional assay
[15] = target: T2, Vδ1 chain of the γδ TCR on human Vδ1 γδ …; assay: cell-based or functional assay; remark: listed apart in the source
[16] = target: T2, Vδ1 chain of the γδ TCR on human Vδ1 γδ …; assay: cell-based or functional assay; remark: listed apart in the source
[17] = target: T1, L1 (DV1-GV4), soluble human Vδ1/Vγ4 γδ …; assay: SPR (Reichert 4SPR), antibody on Protein A chip, Vδ1 heterodimer at 6.25-100 nM as analyte
[18] = target: T3, Cyno DV1/GV77 antigen, recombinant cynomolgus Vδ1 heterodimer (cynomolgus monkey); assay: as above
T3 construct: also called cyno TRDV1; Cyno DV1-77; not shown: delta CDR3/J, TCR constant region, zipper and tag; the whole gamma chain GV77

[19] = target: T3, Cyno DV1/GV77 antigen, recombinant …; assay: SPR (Reichert 4SPR), antibody on Protein A chip

T1 sequence (main, as listed by the source): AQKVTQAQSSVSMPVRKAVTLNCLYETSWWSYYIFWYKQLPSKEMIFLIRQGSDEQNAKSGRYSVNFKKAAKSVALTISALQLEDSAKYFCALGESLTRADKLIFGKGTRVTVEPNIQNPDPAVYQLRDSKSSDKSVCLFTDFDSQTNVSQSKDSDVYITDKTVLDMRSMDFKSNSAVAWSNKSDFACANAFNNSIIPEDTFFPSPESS
T2 sequence (A0A1B0GX56 22-115, stated change not applied): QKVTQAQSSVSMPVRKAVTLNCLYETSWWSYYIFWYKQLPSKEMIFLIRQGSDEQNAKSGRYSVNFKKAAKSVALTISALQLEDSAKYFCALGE
T3 sequence (delta, as listed by the source limits assumed): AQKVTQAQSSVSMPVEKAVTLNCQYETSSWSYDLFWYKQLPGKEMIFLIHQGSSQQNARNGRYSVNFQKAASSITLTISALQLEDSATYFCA
4-1BB on 4-1BB+ NFAT Jurkat cells, sequence (Q07011 24-255 limits assumed): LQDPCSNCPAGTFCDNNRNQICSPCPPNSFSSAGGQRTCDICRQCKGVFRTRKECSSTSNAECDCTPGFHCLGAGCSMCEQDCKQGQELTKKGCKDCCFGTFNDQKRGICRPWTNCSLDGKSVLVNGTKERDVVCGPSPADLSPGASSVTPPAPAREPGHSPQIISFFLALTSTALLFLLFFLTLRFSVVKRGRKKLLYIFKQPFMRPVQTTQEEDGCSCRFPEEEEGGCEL

| Binder | DELFIA signal at 100 nM L1 [1] [fluorescence units] | Kd [3] [nM] | EC50 [7] [nM] | ELISA signal (heat map) [8] | EC50 [9] [nM] | further results |
| --- | --- | --- | --- | --- | --- | --- |
| B1 | 17100 | – | – | – | – | TCR downregulation (EC50 µg/ml-3 donors) [2]: 0.849 µg/mL |
| B2 | – | 3.78 | 5.15 | 37100 | 0.952 | IC50 TCR DR (no THP-1) [4]: 0.161 nM; IC90 TCR DR (noTHP-1) [4]: 0.79 nM; EC50 (read off the curve) [5]: ~1 nM; EC50 (read off the curve) [6]: ~5 nM |
| B3 | 64300 | – | – | – | – | TCR downregulation (EC50 µg/ml), 1 donor only [2]: 0.35 µg/mL |
| B4 | – | 4.99 | 37.2 | 30800 | 2.68 | IC50 TCR DR (no THP-1) [4]: 0.164 nM; IC90 TCR DR (noTHP-1) [4]: 1.04 nM |
| B5 | 163000 | 38.1 | > 100 | 5470 | 226 | IC50 TCR DR (no THP-1) [4]: 22.4 nM; IC90 TCR DR (noTHP-1) [4]: 139 nM |
| B6 | 22500 | – | – | – | – | – |
| B7 | – | 1.04 | 93 | 32700 | 196 | IC50 TCR DR (no THP-1), one donor only [4]: 0.173 nM; IC50 of TCR downregulation (Vδ1 TCR staining as % MFI, soluble antibody, 2 h, average of two γδ cell donors) [10]: 6.26 nM |
| B8 | – | – | – | – | – | EC50 (read off the curve) [11]: ~0.3 nM; IC50 (read off the curve), Vδ1 TCR downregulation, γδ T-cells alone [12]: ~0.2 nM; Kd [13]: 1.2 nM; EC50 (read off the curve), 4-1BB+ NFAT Jurkat activation assay [14]: 10 to 20 nM; IC50 (read off the curve), Vδ1 TCR downregulation, γδ T-cells with activated 4-1BB+ CD8 T-cells [15]: ~0.1 nM |
| B9 | – | – | – | – | – | IC90 TCR DR (noTHP-1) [16]: 1 nM |
| B10 | – | – | – | – | – | Kd [17]: 3.5 nM; Kd [18]: 77 nM; fold increase in affinity against ADT1-4 [19]: ~5 fold |
| B11 | 23800 | – | – | – | – | – |
| B12 | 10400 | – | – | – | – | – |
| B13 | 18400 | – | – | – | – | – |
